Values of other authors in US20240285756A1, “METHOD AND COMPOSITION FOR INDUCING TOLERANCE” (ZELARION MALTA LIMITED, priority 2021, published 2024).

Target: T1, CD2 (Homo sapiens, UniProt P06729)
T1 sequence (P06729 25-351): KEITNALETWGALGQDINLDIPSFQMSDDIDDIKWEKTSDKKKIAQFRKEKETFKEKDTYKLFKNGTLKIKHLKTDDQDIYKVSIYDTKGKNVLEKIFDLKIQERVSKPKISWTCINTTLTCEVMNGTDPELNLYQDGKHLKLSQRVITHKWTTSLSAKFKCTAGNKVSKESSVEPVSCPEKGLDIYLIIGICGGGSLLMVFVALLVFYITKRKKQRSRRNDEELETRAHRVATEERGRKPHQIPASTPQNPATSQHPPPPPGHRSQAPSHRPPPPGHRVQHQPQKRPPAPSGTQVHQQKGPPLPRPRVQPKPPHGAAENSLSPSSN
Settings: literature value, Branco et al., Transplantation 1999; assay not further specified

IC50: ~1 nM
B1: siplizumab: humanized IgG1 kappa monoclonal antibody against human CD2; humanized version of rat antibody BTI-322 (antibody, V domains shown)
VH: QVQLVQSGAEVQRPGASVKVSCKASGYIFTEYYMYWVRQAPGQGLELVGRIDPEDGSIDYVEKFKKKVTLTADTSSSTAYMELSSLTSDDTAVYYCARGKFNYRFAYWGQGTLVTVSS
VL: DVVMTQSPPSLLVTLGQPASISCRSSQSLLHSSGNTYLNWLLQRPGQSPQPLIYLVSKLESGVPDRFSGSGSGTDFTLKISGVEAEDVGVYYCMQFTHYPYTFGQGTKLEIK
